Test [1] addresses ROBO1 (UniProt Q9Y6N7). The test can be described thus: ITC, compared with the scFv alone. Background: Isothermal titration calorimetry measures the heat released or taken up as one component is titrated into another.
In test [2] the target is ROBO1 (UniProt Q9Y6N7). Nature of the test: ITC, ROBO1 titrated into B5209B mouse-scFv-mcSA414 (3.7 µM), 25° C., PBS.
Test [3] addresses ROBO1 (UniProt Q9Y6N7). The test can be described thus: ITC, one-site model (OneSites): ROBO1 injected into B5209B mouse-scFv-mcSA414 (3.7 uM) at 25 C in PBS.
Test [4] concerns the target ROBO1 (UniProt Q9Y6N7). The test can be described thus: ITC, ROBO1 titrated into B5209B mouse-scFv-mcSA414 (3.7 µM), 25° C., PBS; ITC, 25 C, PBS, ROBO1 titrated into the scFv-mcSA414 tetramer (3.7 uM).

B1: B5209B mouse-scFv-mcSA414 (protein)
chain: MAEVQLVESGGGVVQPGGSLKLSCAASGFTFSTYDMSWVRQTPDKRLELVATINSNGGSTYYPDSVKGRFTSSRDNAKNILYLQMSSLKSEDTAMYYCAREALLRPPYYALDYWGQGTSVTVSSAGGGGSGGGGSGGGGSDILDIQMTQSPASLSASVGETVTITCGASENIYGALTWYQRKQGKSPQLLIYGAINLADDKSSRFSGSGSGRQYSLKISSLHPDDVATYYCQNVLSTPFTFGSGTKLEIKAAGSSGSGSAAEAGITGTWSNQLGSTFIVTAGADGALTGTYESAVGNAESRYVLTGRYDSAPATDGSGTALGWTVAWKNNSKNAHSATTWSGQYVGGADAKINTQWLLTSGTTQANAWKSTLVGHDTFTKVKPSAASGARHHHHHH
Broadly, the Kd is the equilibrium constant for the complex coming apart. Consider B1, for which, in test [1], the reduction in affinity compared with scFV stood at 10 fold and the ΔS value relative to scFV (ratio to scFV) came out at 0.025. For the same molecule, in test [2], the binding ratio (molecules of ROBO1 per tetramer) was 2, the enthalpy change (ΔH) was -3.85 kcal/mol and the entropy change (ΔS) is -22 J/mol·K. This molecule also had a N (fitted stoichiometry, ROBO1 per scFv-mcSA414 in the cell) in test [3] of 0.334. Besides, the Kd in test [4] turned out to be 33 nM.

Values taken from patent publication US20120039879A1.
